Data from the Immune Epitope Database (IEDB).
pKd: −log10 of the molar value.

How the values were obtained:
HLA-B*40:01 = test: IEDB peptide-MHC binding, purified MHC/competitive/radioactivity; filed as Kd, often an IC50 or EC50 that approximates it; ≥ and ≤ were set here for values at or beyond the usual limits of such assays; settings: source organism: Dengue virus 1 Singapore/S275/1990
HLA-B*44:02 [1] = test: as above
HLA-B*44:03 = test: as above
HLA-A*03:01 [2] = test: IEDB peptide-MHC binding, purified MHC/competitive/fluorescence; filed as Kd, often an IC50 or EC50 that approximates it; ≥ and ≤ were set here for values at or beyond the usual limits of such assays
HLA-B*15:01 [3] = test: as above; settings: source organism: Salmonella enterica subsp. enterica serovar Typhi
HLA-B*15:03 = test: IEDB peptide-MHC binding, purified MHC/competitive/radioactivity; filed as Kd, often an IC50 or EC50 that approximates it; ≥ and ≤ were set here for values at or beyond the usual limits of such assays; settings: source organism: Vaccinia virus WR
HLA-B*15:17 [4] = test: IEDB peptide-MHC binding, purified MHC/direct/fluorescence; filed as Kd, often an IC50 or EC50 that approximates it; ≥ and ≤ were set here for values at or beyond the usual limits of such assays
HLA-B*57:01 [5] = test: as above
HLA-B*58:01 = test: as above
HLA-B*08:01 [6] = test: IEDB peptide-MHC binding, purified MHC/competitive/radioactivity; filed as Kd, often an IC50 or EC50 that approximates it; ≥ and ≤ were set here for values at or beyond the usual limits of such assays; settings: source organism: Vaccinia virus WR
HLA-B*15:01 [7] = test: as above; settings: source organism: Vaccinia virus WR
HLA-A*02:01 [8] = test: IEDB peptide-MHC binding, purified MHC/direct/fluorescence; filed as Kd, often an IC50 or EC50 that approximates it; ≥ and ≤ were set here for values at or beyond the usual limits of such assays
HLA-A*02:19 = test: as above
HLA-A*03:01 [9] = test: as above
HLA-A*26:01 = test: IEDB peptide-MHC binding, purified MHC/competitive/fluorescence; filed as Kd, often an IC50 or EC50 that approximates it; ≥ and ≤ were set here for values at or beyond the usual limits of such assays
HLA-B*15:17 [10] = test: as above; settings: source organism: Orthohantavirus sinnombreense
HLA-B*18:01 [11] = test: as above; settings: source organism: Orthohantavirus sinnombreense
HLA-B*27:03 = test: as above
HLA-B*39:01 = test: as above
HLA-B*46:01 [12] = test: as above; settings: source organism: Orthohantavirus sinnombreense
HLA-B*51:01 = test: as above; settings: source organism: Orthohantavirus sinnombreense
HLA-B*57:01 [13] = test: as above; settings: source organism: Orthohantavirus sinnombreense
HLA-A*30:01 = test: IEDB peptide-MHC binding, purified MHC/competitive/radioactivity; filed as Kd, often an IC50 or EC50 that approximates it; ≥ and ≤ were set here for values at or beyond the usual limits of such assays; settings: source organism: Vaccinia virus WR
HLA-A*32:01 = test: as above; settings: source organism: Vaccinia virus WR
HLA-A*01:01 = test: IEDB peptide-MHC binding, purified MHC/direct/fluorescence; filed as Kd, often an IC50 or EC50 that approximates it; ≥ and ≤ were set here for values at or beyond the usual limits of such assays; settings: source organism: Reston ebolavirus - Reston
HLA-A*11:01 = test: as above; settings: source organism: Reston ebolavirus - Reston
HLA-A*29:02 = test: as above; settings: source organism: Reston ebolavirus - Reston
HLA-A*31:01 = test: as above; settings: source organism: Reston ebolavirus - Reston
HLA-B*08:01 [14] = test: as above; settings: source organism: Reston ebolavirus - Reston
HLA-B*15:01 [15] = test: as above; settings: source organism: Reston ebolavirus - Reston
HLA-B*18:01 [16] = test: as above; settings: source organism: Reston ebolavirus - Reston
HLA-B*27:05 = test: as above; settings: source organism: Reston ebolavirus - Reston
HLA-B*44:02 [17] = test: as above; settings: source organism: Reston ebolavirus - Reston
HLA-B*46:01 [18] = test: as above; settings: source organism: Reston ebolavirus - Reston
HLA-B*48:01 = test: as above
HLA-A*02:01 [19] = test: IEDB peptide-MHC binding, purified MHC/competitive/fluorescence; filed as Kd, often an IC50 or EC50 that approximates it; ≥ and ≤ were set here for values at or beyond the usual limits of such assays; settings: source organism: Reston ebolavirus - Reston (1989)
HLA-A*69:01 [20] = test: as above; settings: source organism: Reston ebolavirus - Reston (1989)
HLA-A*02:11 = test: IEDB peptide-MHC binding, purified MHC/direct/fluorescence; filed as Kd, often an IC50 or EC50 that approximates it; ≥ and ≤ were set here for values at or beyond the usual limits of such assays; settings: source organism: Amur virus
HLA-A*02:12 = test: as above; settings: source organism: Amur virus
HLA-A*69:01 [21] = test: as above; settings: source organism: Amur virus
HLA-A*68:02 = test: IEDB peptide-MHC binding, purified MHC/competitive/fluorescence; filed as Kd, often an IC50 or EC50 that approximates it; ≥ and ≤ were set here for values at or beyond the usual limits of such assays; settings: source organism: Salmonella enterica subsp. enterica serovar Typhi
[22] = source organism: Dengue virus 1 Singapore/S275/1990
[23] = source organism: Rickettsia sibirica
[24] = source organism: West Nile virus
[25] = source organism: Convict Creek 107 virus
[26] = source organism: Orthohantavirus sinnombreense
[27] = source organism: Reston ebolavirus - Reston
[28] = source organism: Reston ebolavirus - Reston (1989)
[29] = source organism: Dengue virus 2 Jamaica/1409/1983

For AENHHHATM, the pKd (HLA-B*40:01) was 8.00, the pKd (HLA-B*44:02 [1]; [22]) was 7.56 and the pKd (HLA-B*44:03; [22]) was 6.94.
AMAAAGMMY was tested, and the pKd (HLA-A*03:01 [2]; source organism: Salmonella enterica subsp. enterica serovar Typhi) was 6.16 and the pKd (HLA-B*15:01 [3]) was 6.48.
Work on ASTNLGSSF yielded a pKd (HLA-B*15:03) of 6.79.
With ASWMALGVY the pKd (HLA-B*15:17 [4]; [23]) was 7.62, the pKd (HLA-B*57:01 [5]; source organism: Rickettsia sibirica 246) was no more than 4.70 and the pKd (HLA-B*58:01; [23]) was 5.88.
CMKTFFGWK gave a pKd (HLA-A*03:01 [2]; source organism: Influenza A virus (A/Hong Kong/1774/99(H3N2))) of 7.45.
ELYMYFNHV showed a pKd (HLA-B*08:01 [6]) of 6.62, a pKd (HLA-B*15:01 [7]) of 5.88 and a pKd (HLA-B*15:03) of 6.38.
Work on EQFVGTNSI yielded a pKd (HLA-B*15:03) of 6.71.
Work on FINMTGNHF yielded a pKd (HLA-B*15:01 [7]) of 7.79 and a pKd (HLA-B*15:03) of 7.47.
Work on FKINIFMAF yielded a pKd (HLA-B*08:01 [6]) of 4.97 and a pKd (HLA-B*15:03) of 7.99.
For GSRAIWFMW, the pKd (HLA-B*15:17 [4]; [24]) was 7.20 and the pKd (HLA-B*57:01 [5]; [24]) was 7.42.
IETPNELSF was tested, and the pKd (HLA-B*15:03) was 6.54.
KKVYTFFKF showed a pKd (HLA-B*15:03) of 8.44.
KLHRYIDSM was tested, and the pKd (HLA-A*02:01 [8]; source organism: Orthohantavirus andesense) was 7.47, the pKd (HLA-A*02:19; [25]) was no more than 4.70 and the pKd (HLA-A*03:01 [9]; [25]) was no more than 4.70. It also gave a pKd (HLA-A*26:01; [26]) of no more than 4.70, a pKd (HLA-B*15:17 [10]) of no more than 4.70 and a pKd (HLA-B*18:01 [11]) of no more than 4.70. The pKd (HLA-B*27:03; [26]) was no more than 4.70, the pKd (HLA-B*39:01; [26]) was no more than 4.70 and the pKd (HLA-B*46:01 [12]) was no more than 4.70. The pKd (HLA-B*51:01) was no more than 4.70 and the pKd (HLA-B*57:01 [13]) was no more than 4.70.
KLLSHFYPA showed a pKd (HLA-A*30:01) of 5.48, a pKd (HLA-A*32:01) of 6.89 and a pKd (HLA-B*08:01 [6]) of 7.09. For the same sequence, the pKd (HLA-B*15:01 [7]) was 7.41 and the pKd (HLA-B*15:03) was 8.27.
With KMSFLPIIF the pKd (HLA-A*32:01) was 8.17 and the pKd (HLA-B*15:03) was 10.10.
With KQYKFYNQI the pKd (HLA-A*30:01) was 5.87, the pKd (HLA-A*32:01) was 4.97 and the pKd (HLA-B*08:01 [6]) was no more than 4.11. It also gave a pKd (HLA-B*15:01 [7]) of 5.18 and a pKd (HLA-B*15:03) of 6.92.
KTWGKNLVF was tested, and the pKd (HLA-B*15:17 [4]; source organism: Yellow fever virus 1899/81) was 8.77.
LEFNTPFVF gave a pKd (HLA-B*15:03) of 7.98.
With LQYVHINEL the pKd (HLA-B*15:03) was 8.44.
Work on LYRPNIPLK yielded a pKd (HLA-A*30:01) of 8.46, a pKd (HLA-A*32:01) of no more than 4.11 and a pKd (HLA-B*08:01 [6]) of no more than 4.48. It also gave a pKd (HLA-B*15:01 [7]) of no more than 4.25 and a pKd (HLA-B*15:03) of no more than 4.16.
QLSLRMLSL was tested, and the pKd (HLA-A*01:01) was no more than 4.70, the pKd (HLA-A*03:01 [9]; [27]) was no more than 4.70 and the pKd (HLA-A*11:01) was no more than 4.70. For the same sequence, the pKd (HLA-A*29:02) was no more than 4.70, the pKd (HLA-A*31:01) was no more than 4.70 and the pKd (HLA-B*08:01 [14]) was 6.07. For the same sequence, the pKd (HLA-B*15:01 [15]) was no more than 4.70, the pKd (HLA-B*18:01 [16]) was no more than 4.70 and the pKd (HLA-B*27:05) was no more than 4.70. For the same sequence, the pKd (HLA-B*44:02 [17]) was no more than 4.70, the pKd (HLA-B*46:01 [18]) was no more than 4.70 and the pKd (HLA-B*48:01; [27]) was no more than 4.70. For the same sequence, the pKd (HLA-B*57:01 [5]; [27]) was no more than 4.70, the pKd (HLA-B*58:01; [27]) was no more than 4.70 and the pKd (HLA-A*02:01 [19]) was no more than 4.70. The pKd (HLA-A*26:01; [28]) was no more than 4.70, the pKd (HLA-A*69:01 [20]) was no more than 4.70 and the pKd (HLA-B*27:03; [28]) was no more than 4.70. For the same sequence, the pKd (HLA-B*39:01; [28]) was no more than 4.70.
Work on RMLHLSQMH yielded a pKd (HLA-A*03:01 [2]; source organism: Bacillus anthracis str. A0488) of 7.59.
In the case of RQMVNDMIF, the pKd (HLA-B*15:03) was 8.90.
In the case of RRLAATTEK, the pKd (HLA-B*48:01; [24]) was no more than 4.70.
In the case of RTRNMFRKK, the pKd (HLA-A*30:01) was 10.05 and the pKd (HLA-B*15:03) was no more than 4.29.
SMKTVFQVF gave a pKd (HLA-B*08:01 [6]) of 6.75, a pKd (HLA-B*15:01 [7]) of 8.80 and a pKd (HLA-B*15:03) of 8.42.
Work on TLTRGQNTV yielded a pKd (HLA-A*02:01 [8]; source organism: Amur virus) of 7.40, a pKd (HLA-A*02:11) of no more than 4.70 and a pKd (HLA-A*02:12) of 7.24. For the same sequence, the pKd (HLA-A*02:19; source organism: Amur virus) was 6.86 and the pKd (HLA-A*69:01 [21]) was no more than 4.70.
WEGNPGRFW gave a pKd (HLA-B*44:02 [1]; [29]) of 7.89 and a pKd (HLA-B*44:03; [29]) of 7.05.
Work on WKWFYKKYL yielded a pKd (HLA-B*48:01; source organism: Campylobacter jejuni subsp. jejuni HB93-13) of 6.57.
For WVVDQNGRV, the pKd (HLA-A*68:02) was 7.75.
